# Experiment: soluble on expression in E. coli; label from the status in PepcDB or PDB records
row,Sequence,soluble on expression in E. coli
1,MRLKDLGERALLARLAPLGYPPEAPLPPGDDAGGVWAEGRAWLLKTDGFLYREVALKGMGPFEVGFRGVAATASDLLAKMGRPLGFTLGLFLPEDLEEGFVLELVRGAAEAAKRLGAFLLGGDTNRGVEVALTVSGYALAEAPLPRKALPGDLLYLAGDRWGRTGAAIRAHYEGRSLEGFPKIREAAFYPLPRLELLALSGLLRGSLDSSDGLAETLWQLADLGVGVEVEALPLYPDVLAFAGSEEAALELVLYGGEEFEAVLVVPQEGAAAVEARAKAKGLPLFRAGRVVAGEGVYLRGAPLPRKGYAHF,soluble
2,MTTHTGGCQCGAVRFRATGDLQDSSICHCRMCQKAFGAYYAPLVSVRNVEFEWTRGEPKRFQSSSVVKRGFCPECGTPLTYEAPDGVAVAAGAFDDPAALPPTIQWGVERKIDFVDTLHTLPAVATEDDLTQVDYLTNLVSYQHPDHDTENWPPEKR,not soluble
3,VETASLDVYAKYVLRSICQQEWVGERCLKSLCEDSNDLQDPVLSSAQAQRLMQLICYPHRLLDNEDGENPQRQRIKRILQNLDQWTMRQSSLELQLMIKQTPNNEMNSLLENIAKATIEVFQRSAETGSSSGSTASNMPSSSKTKPVLSSLERSGVWLVAPLIAKLPTSVQGHVLKAAGEELEKGQHLGSSSRKERDRQKQKSMSLLSQQPFLSLVLTCLKGQDEQREGLLTSLYSQVHQIVN,not soluble
4,MANHAKLVDQEIYRSPVDDFELNYQEYLNDDDDDKQEAPVAVSKAPKGKGSNHGLGCRMKGLFDGFGGTDLKTIMRHLRRRRPKSGQALTNFMLSGNMEKVVDQHVKDFVHHFGRINPENGRIMGALRGNDFFNFGGLHNNLGNTGKVYLDNLMKGKCGKKRKVHKFKPIVVEELDFGAPKPAVPATPKAPVAPVAPVIPAPAVTPQKPKVDEPTYADSVSDFGLDFETEREKCLRNKTLFEDPEFPATAASLYYRTPPRDRIIWKRPGEIIANPQLITQGESRFDVKQGALGDCWFLAALANITLYDALFYRIVPPNQSFTENYAGIFHFQFWHYGKWVDVVVDDRLPTVNNQLYYLHSADNTEFWSALVEKAYAKLHGGYENLDGGTTAEALEDFTGGLTEYFDLRKSEKAAVLAALVKGMEMGSLFGCSIDADANIKEAQLRNGLVCGHAYSITAIHSITYYGEDTTLLRLRNPWGNEKEWNGAWSDGSSEWSKIDEATKKQIDVQFARDGEFWMSFEDFFSNFTQMEVCNLTAEIFDEIAEMTGVNRATETVEEEHQWHEIMEDGEWSSKHSWRLQQQPIYLPQEPSILHFLHSTTILY,not soluble
5,MSEQKQDVAATEEQQPVLQIQRIYVKDVSFEAPNLPHIFQQEWKPKLGFDLSTETTQVGDDLYEVVLNISVETTLEDSGDVAFICEVKQAGVFTISGLEDVQMAHCLTSQCPNMLFPYARELVSNLVNRGTFPALNLSPVNFDALFVEYMNRQQAENAEEKSEEEQTKH,soluble
6,MGSDKIHHHHHHMQLDKIIAQNIVKRAMNIIGCSVNVMDHHGIIIASGNPARLNQLHTGAVLALRQNRMVEVDENLAEKWNFDAHPGINVPIQYLGNNIGVIGISGVPEQVKPYAELVKMTAELIIEQHILLEKESWNRRYKEEFILQLVKGNLSLAEIQQQAAFFSFALDIPRVVIIIKLLHPNADSLQQLVGYLEQPQFEQDVAILSLDQIIILQPFNIFAQFGKQLKKLLPKDYSQQDYKIAIGAQLECPAGEQLHLSYRSALSTLQYGLKHYPRKTLYFFEQYRLPVLLAGIADSWQAEELLKPLKALFSEENALLFKTLQQYFLSNCDLVLTAQKLFIHPNTLRYRLAKIEQITALSFNKIEDRFSLYLSTVLI,not soluble
7,YNPLNSVEDSTNRRDTVLQNMVAAGYIDKNQETKAAEVDMTSQLHDKYEGKISDYRYPSYFDAVVNEAVSKYNLTEEEIVNNGY,not soluble
8,MGSDKIHHHHHHVEMPGTTEPLGKMVKVEGKKDEHKGDFFLTTVQIARANLATMIYSHFNSFTSIYSEQEMTGGLNDAQFNRVNQFYMETAQNTAIYQAFKLANKPYELKYEGVYVLDIAKNSTFKNKLELADTITAVNGQQFTSSADMIAYVSKQKVGDSVTIEYTRIDGTKHKSTGKYIKIANGKTGIGISLVDHTEVVTTPKVTVNAGSIGGPSAGMMFTLEIYSQLTGKDLRNGREIAGTGTIEHDGSIGQIGGVDKKVATASKEGAKVFLVPDSGTKKESSNNYLGAKTAAKKLKTKMKIVPVKTIQDALDYLEK,not soluble
9,MPSLVIQDGGASIIRAVRPEEFAPQAPGKLLAIGRGVYAFLPDPLPPRLEWSLRLIALLDEARGALGELAGLLRQLPNPYLFIRPFIQKEAVLSSRIEGTQAGLLDVYALEAQVPLFPSPKLREDAQEVLNYIRALERGRELLQEIPLSLRLLKEVHAVLLRGVRGGGRAPGEFRRAQNWIGPPGSSLEEARYVPPPPGPMLEALDALERFWHSDHGLPPLVEIALVHYQFEAIHPFLDGNGRMGRLLITLMLLERGLLPEPALYLSAYFERHRTLYYDLLLGVSQRGAWEDWLAFFLEGVRTEAKDVAERARRLLDLWREWRERYGRKGGSAHILGLLDLLFERPVLTVPLVKDRLGITHAWANRLVQRLEEDGILTPVSERKRNRLYAAKEILEILEEARNA,soluble
10,MKDQNGVASTDDSVLPSWSNPDVGQFIVSTYNEYEYKRIPFRELEFGCLLCRMRTFNHEGMKKHLRDHVVHKKSSCEHEKPGKTGIHHQVDKAGNGVMPENGQLVQCYIEIKLADCYTSWSNYESQNPIIFKIGFGEVIPGLDIGIPKMKVGEIATFHVSGKYGYGRAGFRGLIPRNASLTCKVRLFNCSWDSYAKIGVDRQILVQGDNVTKSKNGQTVTCHYVLILVDGTKIDSSRDRETPFKFKIGKGEVIKGWDQGVAQMSVKEKSKLTIAPAFGFEKGKLPAGIPA,not soluble
11,MAHHHHHHMGGFGSKNMEYYNYASMKLLERDKYTNEKEEEEDDQYCKETDIREAVKKAREIRNCNYKESMDLYIKALKMLKKLKENNSRIYRNVLEFEIRPQEIASSAPLNTSLEKNIHMKKEGETNYTCAPPNDNQAISLNNKIASLYNEIADLCCIHDFIEKSLFYYDKACSYNPSKIDYIYKKGVLFQQMNDTERAINTFKIILSAEPNHIPTLFSLGNLYRYIDNHIALSYFEAILKIEPNNTEVLSLIASCYDNLGKLNEAISYQNKAVQIDPDNFNHKKFAQRLIEMKSQN,soluble
12,MSLSQRGLEALLRPKSIAVIGASMKPNRAGYLMMRNLLAGGFNGPVLPVTPAWKAVLGVLAWPDIASLPFTPDLAVLCTNASRNLALLEELGEKGCKTCIILSAPASQHEDLRACALRHNMRLLGPNSLGLLAPWQGLNASFSPVPIKRGKLAFISQSAAVSNTILDWAQQRKMGFSYFIALGDSLDIDVDELLDYLARDSKTSAILLYLEQLSDARRFVSAARSASRNKPILVIKSGRSPAAQRLLNTTAGMDPAWDAAIQRAGLLRVQDTHELFSAVETLSHMRPLRGDRLMIISNGAAPAALALDALWSRNGKLATLSEETCQKLRDALPEHVAISNPLDLRDDASSEHYIKTLDILLHSQDFDALMVIHSPSAAAPATESAQVLIEAVKHHPRSKYVSLLTNWCGEHSSQEARRLFSEAGLPTYRTPEGTITAFMHMVEYRRNQKQLRETPALPSNLTSNTAEAHLLLQQAIAEGATSLDTHEVQPILQAYGMNTLPTWIASDSTEAVHIAEQIGYPVALKLRSPDIPHKSEVQGVMLYLRTANEVQQAANAIFDRVKMAWPQARVHGLLVQSMANRAGAQELRVVVEHDPVFGPLIMLGEGGVEWRPEDQAVVALPPLNMNLARYLVIQGIKSKKIRARSALRPLDVAGLSQLLVQVSNLIVDCPEIQRLDIHPLLASGSEFTALDVTLDISPFEGDNESRLAVRPYPHQLEEWVELKNGERCLFRPILPEDEPQLQQFISRVTKEDLYYRYFSEINEFTHEDLANMTQIDYDREMAFVAVRRIDQTEEILGVTRAISDPDNIDAEFAVLVRSDLKGLGLGRRLMEKLITYTRDHGLQRLNGITMPNNRGMVALARKLGFNVDIQLEEGIVGLTLNLAQREESEGGSHHHHHH,soluble
13,MKKDWQEQLPLNHIRDIKTVSGGDVNEAFKVTTEDDVYFLLVQRNRDKSFYAAEIAGLNAFEEAGVTAPHVIDSGEINGDAFLILSYLDEGTTGSQRELGQLVAKMHSQQQSDGKFGFDLPHEGGDISFDNTWSDSWIEIFVERRMDHLRDELMRKGLWNDEDNKVYEQVRTVMVNELENHNSNPSLLHGDLWGGNYMFLTDGSPALFDPAPFYGDREFDLGITTVFGGFTREFYDEYEKHYPLGKGSRKRLEFYRLYLFMVHLLKFGGMYASSVNRSMDEILALEHHHHHH,soluble
14,MGGSGVEGLSGKRCWLAVRNASLCQFLETSLQRSGIVVTTYEGQEPTPEDVLITDEVVSKKWQGRAVVTFCRRHIGIPLEKAPGEWVHSVAAPHELPALLARIYLIEMESDDPANALPSTDKAVSDNDDMMILVVDDHPINRRLLADQLGSLGYQCKTANDGVDALNVLSKNHIDIVLSDVNMPNMDGYRLTQRIRQLGLTLPVIGVTANALAEEKQRCLESGMDSCLSKPVTLDVIKQTLTLYAERVRKSRDS,soluble
15,MGCMIQSFRCKSTQAMFEGECPQRFSAIQAVAERKLAQLEAAQTLDFLRSPPGNRLEKLAGDREGQWSIRINAQWRICFTWSDLDPADVEIVDYH,not soluble
16,SLTRATKGFLSKSLPKASEATPGSQSSDYIPLVSLQLASGAFLLNEAFCTTIQIPMEKLKWTSPFSCLRMSLVTRRQDLKTQSPQDCTSLSSSPPSCDGISLKSEESSDQESNAMLEHMGKLWATVVALAWLEHSSANYIIEWELVAAKASSWVEKQKVPEGRTLSTLKNTARQLFVLLRHWDEKLEFNMLCYNPNYV,soluble
17,MNERGMLVDPRFDAFFKLEQIDDYKYDGADTSPSTSNGLPETSNGGRLICDVCGDVAFGKHYGINACNGCKGFFRRSVWSRRQYSCRFGGDCPVVKEHRNVCRSCRLKKCFEVGMNPDSVQNERDRNAKNGGMGGPMSSPTQSSLCKELTISNGQIKRKRLRPETVEKTTQTDGKLEINDDFDFENMQQNPTPPGLLPLKIERISTPPSDLPVPMDFSIHSAVLDIEQKVFYNCPVAVDNSINATKTPITLPFEVVFRQPHLVCNRYPMRFSNTRVLTPEDLIDGWRRHFTYYSDWCHAMDEFKALSPEDQIVLAKKKIILHGWLVHAYYSYKSGCNGICFANGAAHLPEGGHPSITEFYKECMPRYLNYVIYPMHNFQMDDAEMVLIKCIMFFSSESGLSAAGRQIVSAAREKYLSALYNYGRANKCTTSAQATLRIAKFMIMLSAITSLTHLMNEGVHVTSLFNIIEFDELIQATHKTTPPQHSPPAPMG,not soluble
18,MVDKREEVMHVAMFPWLAMGHLLPFLRLSKLLAQKGHKISFISTPRNIERLPKLQSNLASSITFVSFPLPPISGLPPSSESSMDVPYNKQQSLKAAFDLLQPPLKEFLRRSSPDWIIYDYASHWLPSIAAELGISKAFFSLFNAATLCFMGPSSSLIEEIRSTPEDFTVVPPWVPFKSNIVFRYHEVTRYVEKTEEDVTGVSDSVRFGYSIDESDAVFVRSCPEFEPEWFGLLKDLYRKPVFPIGFLPPVIEDDDAVDTTWVRIKKWLDKQRLNSVVYVSLGTEASLRHEEVTELALGLEKSETPFFWVLRNEPKIPDGFKTRVKGRGMVHVGWVPQVKILSHESVGGFLTHCGWNSVVEGLGFGKVPIFFPVLNEQGLNTRLLHGKGLGVEVSRDERDGSFDSDSVADSIRLVMIDDAGEEIRAKAKVMKDLFGNMDENIRYVDELVRFMRSKGSSSSS,not soluble
19,MINHLSAIDDIADAEQIRVLFYASNRMVHAPLNKVLDLIKNDTQRDLLSALTQYQEATEQRIETLQKNLDALRLQVSLSTHNLKK,not soluble
20,MAEIFRIPEEKFRDKVHKSLEENVTWVERETGRLPSYEEVEEFLVEEFSKVIPFEGEEPVPEEAIELADKLKEEFTSEEVLLEDTGRKHRAIKLREGVYLRTAVHKAQGGLIRTEVYTDGEVIERVKIYGDFTLYPKESLKELEEKLKGIKFEPEEIKKVAHEFLQKVDMPGVSAEDLVIAIYG,soluble

# From the DeepSol protein solubility set
